Data published in PMC7615550, “Structural mechanism of outer kinetochore Dam1:Ndc80 complex assembly on microtubules” (Science (New York, N.Y.), 2023).

B1: Ask1 subunit of the Dam1 complex (natural protein, S. cerevisiae)
chain: MDSASKEETLEKLDQEITVNLQKIDSNLSFCFHKITQDIIPHVATYSEICERIMDSTEWLGTMFQETGLVNLQANAAAPVGNAPVKSLVSNNVGIFPTSAEEASRQSQTDNGPNEADSAVHVNRDVHSMFNNDSIDDFHTANITSTGQILKLPDSSDEDTGSEAVPSREQTDLTGEGHGGADDEQDESTIQRQSRKRKISLLLQQQYGSSSSMVPSPIVPNKMRKQLAHEEHINNDGDNDDENSNNIESSPLKQGHHHPKGQADDNNEGPDEEESTKEVPKPGTIIHFSTNR
notes: Ask1, S. cerevisiae, as a subunit of the reconstituted Dam1 complex; Stood in the assay inside the whole Dam1c; also called Ask1^B; source: purified as part of Dam1c
B2: Dad4 subunit of the Dam1 complex (natural protein, S. cerevisiae)
chain: MENPHEQVQANILSRIIGNVKRLNESVAILNQELVTINNRNKNLEIMGAICDNYHSSVQFNLEATNNKKPPL
notes: Dad4, S. cerevisiae, as a subunit of the reconstituted Dam1 complex; Stood in the assay inside the whole Dam1c; also called Dad4^B; source: purified as part of Dam1c
B3: Dam1 subunit of the Dam1 complex (natural protein, S. cerevisiae)
chain: MSEDKAKLGTTRSATEYRLSIGSAPTSRRSSMGESSSLMKFADQEGLTSSVGEYNENTIQQLLLPKIRELSDSIITLDSNFTRLNFIHESLADLNESLGSLLYGIMSNSWCVEFSQAPHDIQDDLIAIKQLKSLEDEKNNLVMELSNMERGIKRKKDEQGENDLAKASQNKQFNQPLFPSSQVRKYRSYDNRDKRKPSKIGNNLQVENEEDYEDDTSSEASFVLNPTNIGMSKSSQGHVTKTTRLNNNTNSKLRRKSILHTIRNSIASGADLPIENDNVVNLGDLHPNNRISLGSGAARVVNGPVTKNRNSMFSGRAERKPTESRHSVAKKTEKKINTRPPFR
notes: Dam1, S. cerevisiae, as a subunit of the reconstituted Dam1 complex; Stood in the assay inside the whole Dam1c; also called Dam1^Staple (residues 1-26); Dam1^C-ter; source: purified as part of Dam1c
B4: Spc34 subunit of the Dam1 complex (natural protein, S. cerevisiae)
chain: MGESLDRCIDDINRAVDSMSTLYFKPPGIFHNAILQGASNKASIRKDITRLIKDCNHDEAYLLFKVNPEKQSVSRRDGKEGVFDYVIKRDTDMKRNRRLGRPGEKPIIHVPKEVYLNKDRLDLNNKRRRTATTSGGGLNGFIFDTDLIGSSVISNSSSGTFKALSAVFKDDPQIQRLLYALENGSVLMEEESNNQRRKTIFVEDFPTDLILKVMAEVTDLWPLTEFKQDYDQLYHNYEQLSSKLRFIKKEVLLQDDRLKTMSQYHPSSSHDVAKIIRKEKDEIRRLEMEIANLQE
notes: Spc34, S. cerevisiae, as a subunit of the reconstituted Dam1 complex; Stood in the assay inside the whole Dam1c; source: purified as part of Dam1c
B5: Spc19 subunit of the Dam1 complex (natural protein, S. cerevisiae)
chain: MTDALEQSVLALEGTVSVLKDSVESLKCANEPSTNLASTMLQTKRVFRLVPEYDVERSKLDLIEEVEPLVRTLGDKLRKSMGRMQRELDTLQQTYELNDLRLKKNISMDDDDALNSPDMGQEYEGRDADDVVMMASSTNEELEELKKLKEKKKQLENKLEILKQK
notes: Spc19, S. cerevisiae, as a subunit of the reconstituted Dam1 complex; Stood in the assay inside the whole Dam1c; source: purified as part of Dam1c
B6: Dad1 subunit of the Dam1 complex (natural protein, S. cerevisiae)
chain: MMASTSNDEEKLISTTDKYFIEQRNIVLQEINETMNSILNGLNGLNISLESSIAVGREFQSVSDLWKTLYDGLESLSDEAPIDEQPTLSQSKTK
notes: Dad1, S. cerevisiae, as a subunit of the reconstituted Dam1 complex; Stood in the assay inside the whole Dam1c; also called Dad1^A; source: purified as part of Dam1c

Experiments:
[1] = target: Dam1 complex (ten-subunit, S. cerevisiae), wild type, P53267;Q12248;P35734;P69851;P36131;Q03954; assay: optical trap force-rupture assay; conditions: Ndc80c + Dam1c on microtubules; N=154 (parent N=150); parent: 10.4
[2] = target: microtubules (α/β-tubulin) (UniProt P02554); assay: optical trap force-rupture assay; conditions: Ndc80c alone (no Dam1c) on microtubules; N=81 (parent N=119); parent: 5.4
[3] = target: Ndc80 complex (heterotetramer of Ndc80, Nuf2, Spc24 and Spc25, S. cerevisiae), wild type (S. cerevisiae) (UniProt P40460)
[4] = target: Dam1 complex (ten-subunit, S. cerevisiae), wild type (S. cerevisiae) (UniProt P53267); assay: cryo-EM structure; outer kinetochore Dam1c:Ndc80c:microtubule complexes assembled on cryo-EM grids by step-wise addition of taxol-stabilized microtubules, Ndc80c, and Dam1c
[5] = target: microtubules (α/β-tubulin) (UniProt P02554); assay: optical trap force-rupture assay; rupture of outer kinetochore - microtubule attachments; each event is the maximum trap force before rupturing; medians; Ndc80c alone
[6] = target: B3; assay: cryo-EM structure; outer kinetochore Dam1c:Ndc80c:microtubule complexes assembled on cryo-EM grids by step-wise addition of taxol-stabilized microtubules, Ndc80c, and Dam1c; conditions: both partners purified
[7] = target: T1, Ndc80 complex (heterotetramer of Ndc80, Nuf2, Spc24 and Spc25, S. cerevisiae), wild type (S. cerevisiae, UniProt P40460 1-691; P33895 1-451; Q04477 1-213; P40014 1-221); assay: as above; conditions: both partners purified
T1 construct: Ndc80 subunit of the S. cerevisiae Ndc80 complex; Nuf2 subunit of the S. cerevisiae Ndc80 complex; Spc24 subunit of the S. cerevisiae Ndc80 complex (no cryo-EM density visible); Spc25 subunit of the S. cerevisiae Ndc80 complex (no cryo-EM density visible); also called Ndc80c^CH; Ndc80^CC:Nuf2^CC; source: purified; copies: + + +

[8] = target: T2, Ndc80 subunit of the Ndc80 complex (S. cerevisiae, UniProt P40460 1-691); assay: as above; conditions: both partners purified
T2 construct: Ndc80, S. cerevisiae, as a subunit of the reconstituted Ndc80 complex; Stood in the assay inside the whole Ndc80c; also called Ndc80^CH; Ndc80^CC; source: purified as part of Ndc80c

[9] = target: B4; assay: as above; conditions: both partners purified

Sequence of Ndc80 complex (heterotetramer of Ndc80, Nuf2, Spc24 and Spc25, S. cerevisiae), wild type (S. cerevisiae) (P40460 whole entry, chain 1 of 4): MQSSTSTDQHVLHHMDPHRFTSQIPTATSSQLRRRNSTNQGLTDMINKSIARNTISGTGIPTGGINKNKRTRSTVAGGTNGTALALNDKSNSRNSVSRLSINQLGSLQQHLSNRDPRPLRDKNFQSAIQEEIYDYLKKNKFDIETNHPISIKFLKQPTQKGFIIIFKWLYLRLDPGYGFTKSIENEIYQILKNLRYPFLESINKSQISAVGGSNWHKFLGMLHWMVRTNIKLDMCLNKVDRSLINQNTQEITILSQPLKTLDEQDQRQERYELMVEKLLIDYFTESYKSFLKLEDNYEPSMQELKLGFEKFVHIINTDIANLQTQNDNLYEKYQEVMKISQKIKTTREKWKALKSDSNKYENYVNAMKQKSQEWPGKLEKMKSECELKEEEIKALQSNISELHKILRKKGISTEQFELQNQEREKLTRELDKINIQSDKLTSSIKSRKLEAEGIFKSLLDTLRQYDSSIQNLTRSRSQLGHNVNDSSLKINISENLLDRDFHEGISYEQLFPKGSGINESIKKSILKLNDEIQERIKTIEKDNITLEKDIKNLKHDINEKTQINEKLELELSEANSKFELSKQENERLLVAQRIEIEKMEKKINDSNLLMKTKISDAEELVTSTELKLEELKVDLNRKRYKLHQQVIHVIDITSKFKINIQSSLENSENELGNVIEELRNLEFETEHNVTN
Sequence of Ndc80 complex (heterotetramer of Ndc80, Nuf2, Spc24 and Spc25, S. cerevisiae), wild type (S. cerevisiae) (P33895 whole entry, chain 2 of 4, further chain): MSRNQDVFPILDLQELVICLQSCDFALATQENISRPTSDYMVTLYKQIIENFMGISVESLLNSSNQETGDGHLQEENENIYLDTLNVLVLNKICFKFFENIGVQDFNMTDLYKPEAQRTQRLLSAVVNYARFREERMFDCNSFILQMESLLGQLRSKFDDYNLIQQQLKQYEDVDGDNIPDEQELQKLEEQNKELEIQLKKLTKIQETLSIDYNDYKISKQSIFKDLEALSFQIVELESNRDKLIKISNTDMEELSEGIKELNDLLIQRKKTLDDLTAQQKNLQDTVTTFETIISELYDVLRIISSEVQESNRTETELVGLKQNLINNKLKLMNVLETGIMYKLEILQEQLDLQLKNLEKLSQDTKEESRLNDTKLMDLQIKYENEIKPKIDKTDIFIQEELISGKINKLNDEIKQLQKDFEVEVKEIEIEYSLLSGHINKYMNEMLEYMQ
Sequence of Ndc80 complex (heterotetramer of Ndc80, Nuf2, Spc24 and Spc25, S. cerevisiae), wild type (S. cerevisiae) (Q04477 whole entry, chain 3 of 4, further chain): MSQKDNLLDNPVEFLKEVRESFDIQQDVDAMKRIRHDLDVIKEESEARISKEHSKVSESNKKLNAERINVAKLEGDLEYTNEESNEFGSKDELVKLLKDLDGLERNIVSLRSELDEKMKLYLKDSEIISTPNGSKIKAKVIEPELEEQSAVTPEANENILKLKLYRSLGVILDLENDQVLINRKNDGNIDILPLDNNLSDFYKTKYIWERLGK
Sequence of Ndc80 complex (heterotetramer of Ndc80, Nuf2, Spc24 and Spc25, S. cerevisiae), wild type (S. cerevisiae) (P40014 whole entry, chain 4 of 4, further chain): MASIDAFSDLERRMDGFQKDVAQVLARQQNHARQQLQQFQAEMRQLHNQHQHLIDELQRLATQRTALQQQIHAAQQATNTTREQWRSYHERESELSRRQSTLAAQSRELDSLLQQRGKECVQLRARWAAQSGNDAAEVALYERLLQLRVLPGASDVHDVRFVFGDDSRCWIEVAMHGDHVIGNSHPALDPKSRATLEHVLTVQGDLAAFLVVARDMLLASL
T1 sequence (P40460 whole entry, chain 1 of 4): as the sequence (P40460 whole entry, chain 1 of 4) above
T1 sequence (P33895 whole entry, chain 2 of 4): as the sequence (P33895 whole entry, chain 2 of 4, further chain) above
T1 sequence (Q04477 whole entry, chain 3 of 4): as the sequence (Q04477 whole entry, chain 3 of 4, further chain) above
T1 sequence (P40014 whole entry, chain 4 of 4): as the sequence (P40014 whole entry, chain 4 of 4, further chain) above
T2 sequence (P40460 whole entry, one chain of several): as the sequence (P40460 whole entry, chain 1 of 4) above

What does the source list for “Ndc80 complex (heterotetramer of Ndc80, Nuf2, Spc24 and Spc25, S. cerevisiae), wild type (from UniProt P40460;P33895;Q04477;P40014) E568R; V590W; L594E; E597R”?
other: median rupture force [1]: 8.9 pN; other: median rupture force [2]: 4.5 pN

Which median rupture force of Ndc80c - microtubule attachments in the presence of Dam1c (optical trap force-rupture assay) [3] does the source give for “Dam1 complex (ten-subunit, S. cerevisiae), wild type (from UniProt P53267 1-343; Q12248 1-94; P35734 1-292; P69851 1-72; P36131 1-295; Q03954 1-165)” here?
Its median rupture force of Ndc80c - microtubule attachments in the presence of Dam1c (optical trap force-rupture assay) is 10.4 pN.

What about the stoichiometry N [4] of the same molecule?
The stoichiometry N was 16.

With “Ndc80 complex (heterotetramer of Ndc80, Nuf2, Spc24 and Spc25, S. cerevisiae), wild type (from UniProt P40460 1-691; P33895 1-451; Q04477 1-213; P40014 1-221)” as the molecule, how does the median rupture force [5] read?
Its median rupture force is 5.4 pN.

For “Dam1 complex with the Dam1 C-terminal mutant (I258/L259/I262 mutated) (from UniProt P53267 1-343; Q12248 1-94; P35734 1-292; P69851 1-72; P36131 1-295; Q03954 1-165)”, which median rupture force of Ndc80c - microtubule attachments in the presence of the Dam1 C-ter mutant Dam1c (optical trap force-rupture assay) [3] is on record?
The median rupture force of Ndc80c - microtubule attachments in the presence of the Dam1 C-ter mutant Dam1c (optical trap force-rupture assay) was 5.5 pN.

Does B1 bind [6]?
Result: binds

Does B2 bind [6]?
Result: binds

Does B3 bind [7]?
Result: binds

Does B4 bind [7]?
Result: binds

What does the source list for B5?
binding result [8]: binds; binding result [9]: binds

Does B6 bind [6]?
Result: binds
